In patent US20090041794A1 (IMMATICS BIOTECHNOLOGIES, published 2009):

B1: iLR2 146-154 (ALCNTDSPL) (peptide)
peptide: ALCNTDSPL
notes: Synthetic peptide bought from Biosynthan, more than 90% purity; also called RPS-002
B2: iLR1 59-68 (LLAARAIVAI) (peptide)
peptide: LLAARAIVAI
notes: Synthetic peptide bought from Biosynthan, more than 90% purity; also called RPS-001

Target: T1, HLA-A*0201 molecule on TAP-deficient T2 cells (human)
T1 construct: also called HLA-A2
Experiment: in vitro reconstitution (T2 whole cell-binding) assay on TAP-deficient T2 cells, compared with the Flu reference peptide

Binder | binding result
B1 | binds
B2 | binds
